Measurements published in US20220275098A1 (NANTBIO, published 2022).
Numbering of substitutions follows the chain as printed.

B1: anti-CD30 IgG1 (52-2) (antibody, V domains shown)
VH: EVQLVESGGGLVQPGGSLRLSCAASGFTFSSYYMHWVRQAPGKGLEWVSAISWSGGSTYYADSVKGRFTISRDNSKNTLYLQMNSLRAEDTAVYYCARDRFMPFIPNTLGFDVWGQGTLVTVSS
VL: DIQMTQSPSSLSASVGDRVTITCQASQDISNYLNWYQQKPGKAPKLLIYVASNLETGVPSRFSGSGSGTDFTFTISSLQPEDIATYYCQQDADVPLTFGQGTKVEIK
notes: also called aCD30 clone 52-2 IgG1
B2: anti-CD30 IgG1 (52-38) (antibody, V domains shown)
VH: B1 VH with Y33W, G56D, F101S, M102A, P103T, F104W, I105Y, P106Y, N107L, T108G
VL: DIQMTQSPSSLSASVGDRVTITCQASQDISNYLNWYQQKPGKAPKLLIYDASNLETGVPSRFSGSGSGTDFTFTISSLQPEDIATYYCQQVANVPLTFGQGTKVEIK
notes: also called aCD30 clone 52-38 IgG1
B3: anti-CD30 IgG1 (52-5) (antibody, V domains shown)
VH: B1 VH
VL: B1 VL with V50D
notes: also called aCD30 clone 52-5 IgG1

target: T1, CD30 (analyte in SPR) (UniProt P28908 19-379, limits assumed); experiment: SPR, 25° C. pH 7.4, IgG1 captured on chip, CD30 as analyte, average value
T1 construct: also called Cluster of Differentiation 30; Ki-1
T1 sequence (looked up): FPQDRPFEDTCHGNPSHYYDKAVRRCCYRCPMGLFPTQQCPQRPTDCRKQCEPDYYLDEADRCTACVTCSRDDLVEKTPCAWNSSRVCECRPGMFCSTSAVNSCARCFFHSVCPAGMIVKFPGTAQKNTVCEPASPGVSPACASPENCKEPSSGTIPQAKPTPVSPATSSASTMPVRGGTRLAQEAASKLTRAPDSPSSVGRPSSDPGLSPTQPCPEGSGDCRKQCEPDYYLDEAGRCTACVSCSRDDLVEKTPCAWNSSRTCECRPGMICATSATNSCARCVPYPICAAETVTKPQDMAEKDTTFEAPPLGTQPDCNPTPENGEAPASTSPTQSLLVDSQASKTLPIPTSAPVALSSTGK
Source text: Using the VH and VL domains as noted above, the inventors prepared various CD30 binding constructs, and exemplary results for scFv and IgG1 constructs are shown below.

Binder | Kd
B1 | 3 nM
B2 | 2.5 nM
B3 | 22.3 nM
